Laboratory results taken from paper doi:10.1101/2022.02.24.481826v2.

Columns and labels:
[1] = system: O=P(O)(O)OP(=O)(O)OP(=O)(O)OC[C@H]1O[C@@H](n2cnc3c(O)ncnc32)[C@H](O)[C@@H]1O; experiment: EnzChek pyrophosphate release assay, Michaelis-Menten fit; type: biochemical, Arabidopsis thaliana; conditions: ITP to IMP
[2] = system: O=c1[nH]cnc2c1ncn2[C@H]1C[C@H](O)[C@@H](COP(=O)(O)OP(=O)(O)OP(=O)(O)O)O1; experiment: as above; type: biochemical, Arabidopsis thaliana; conditions: dITP to dIMP

Substance: ITPA (Arabidopsis thaliana)
- Km [1]: 7.1 ± 1.2 µM
- kcat [1]: 1.9 ± 0.25 s⁻¹
- Km [2]: 1.7 ± 0.3 µM
- kcat [2]: 1.5 ± 0.17 s⁻¹
